Laboratory results as given in the supplement of paper PMC10567573.

B1: SASS6 (parent)
chain: QKELQDVGQSLRIKEQEVCKLQEQ
B2: HDAC6 (parent)
chain: ACAQLATGAACRLVEAVLSGEVLN

Variants of: B1
Assay: protein stability index of a GFP-peptide fusion (GPS, HEK-293T) (PSI 1-6); higher = more stable
Conditions: c terminus: a fixed tail appended
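Note: lentivirally expressed fusions sorted by FACS into six bins by GFP to DsRed ratio, PSI derived from sequencing read proportions per bin multiplied by bin number.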

Protein stability index of substitutions, site by site:
D6: L 4.14; T 4.74; M 5.02; H 4.62; K 5.23; A 5.17; P 5.26; E 5.05; Q 5.31; N 4.9; G 5; S 4.91; F 3.81; V 4.46; Y 4.58
G8: Y 4.18; S 5; N 5.12; E 5.38; I 4; R 5.48; C 4.92; A 3.61; H 5; F 4.07; T 5.13; P 4.75; D 5.26; V 4.69; M 4.98; L 3.83; K 5.2; W 3.84
K14: Y 4.68; E 5.49; R 5.19; D 5.63; C 5.54; N 4.6; M 4.47; V 4.94; P 4.73; G 5.46; A 5.04; I 4.43; S 5.33; T 5.75; H 4.78; Q 4.9; F 4.38
I13: C 3.3; Y 4.95; F 4.85; E 5.34; W 4.57; H 4.64; L 5.57; P 5.38; R 5.7; T 5.13; V 5.44; S 5.45; A 4.69; M 5.64; N 5.31; D 5.72; K 5.29
L11: S 5.47; W 5.11; I 5.39; M 5.6; D 5.75; H 5.36; P 5.37; E 5.84; A 5.25; V 5.39; Y 5.21; C 5.09; K 5.12; N 5.77; Q 5.54; G 5.88; F 5.26; T 5.67
V7: I 5.05; S 5.76; A 5.19; P 4.8; C 3.36; Y 5.18; G 5.41; Q 5.82; N 4.92; R 5.39; L 5.14; F 4.73; T 5.68; W 4.64; H 4.72; M 3.42; D 5.71; E 5.11; K 5.16
Q1: T 4.55; H 5.51; V 4.88; E 5.94; S 4.63; N 5.75; K 5.22; F 4.25; M 4.5; C 4.99; L 4.46; P 4.91; Y 4.78
S10: C 4.12; Q 5.31; L 5; H 4.89; A 5; M 5.33; F 4.91; V 3.9; G 4.74; P 4.37; K 5.1; D 3.74; T 5.48; W 2.66; I 3.83; Y 4.32; E 5.72
R12: W 4.84; C 4.81; Y 5.28; N 5.19; P 5.39; K 5.55; L 5.33; I 5.14; S 5.34; E 5.71; H 5.41; Q 5.75; G 5.6; D 4.03; F 5.02; T 3.75; A 5.34
Q9: L 4.84; I 4.97; S 4.47; N 5.67; A 5.52; K 5.3; G 5.02; P 5.56; D 5.71; H 5.05; F 4.13; R 5.1; C 4.76; T 5.23; E 4.49; Y 4.87; M 4.67
E15: H 4.49; I 2.8; F 3.24; A 5.01; K 3.7; L 4.15; D 5; C 4.11; G 5.1
Q5: H 4.91; V 5.13; N 5.3; T 5.41; C 5.7; I 5.02; F 4.27; R 4.41; K 5.7; Y 4.32; L 2.94; D 5.37; W 4.79; S 5.16; G 5.69; M 5.16
K2: H 5.46; C 5.29; P 4.2; D 5.26; T 5.34; G 4.65; L 4.97; F 4.02; M 5.1; S 5.43; E 5.48; Y 4.98; A 4.58; I 4.88
E3: W 3.84; G 4.68; S 5.1; P 3.71; Q 4.68; C 4.83; K 4.63; N 4.88; D 5.34; F 3.29; I 4.37; A 4.92; M 4.02; H 4.39; L 4.92; V 4.52; T 5.08; Y 4.4; R 5.25
L4: R 4.96; A 5.25; P 5.34; S 5.41; W 4.82; C 4.06; M 3.98; Y 4.98; Q 4.24; I 5.34; H 5.68; D 5.57; G 5.59; N 5.1; T 5.23; F 5.11; K 4.87; V 5.28

Variants of: B2
Assay: as above
Conditions: c terminus: a fixed tail appended

Protein stability index, by site and new letter:
E21: K 1.09; I 3.07; D 2.6; W 2.67; N 3.96; C 2.87; Y 3.01
S19: P 2.98; A 4.12
V22: P 2.42; M 3.31; L 2.09; E 1.84; H 4.01; Y 3.8; D 2.37; F 2.71; S 1.36; A 3.65; G 2.44; K 1.01
L18: S 2.04; Q 2.2; D 3.68; R 2.29; K 2.1; H 2.47; M 3.05; A 1.69; C 1.45; P 3.73; Y 3.82; T 2.02
E15: N 2.52; H 4.01; P 1.05
N24: D 1.87; K 2.61; F 1.85
V17: Q 1.85; P 2.5; S 1.93; D 3.56; H 2.75; T 2.04
A16: R 2.18; L 2.77; D 2.78; P 2.28; Y 3.51
V14: D 2.53; S 2.15; N 3.78; M 3.28; A 2.05; Q 2.74; C 3.54; H 2.56; G 2.17; K 1.97; T 1.75
L13: D 3.58; P 2.53; K 3.91; M 2.93; T 1.93; S 1.68; H 3.21; N 2.06; R 2.5
G20: I 2.15; R 2.86; P 2.07; E 1.43; S 2.89; F 3.97; D 2.25; L 3.07
L23: K 1.7; V 1.26; M 4.41; W 2.42; D 2.49; H 3.51; E 2.83; A 2.22; Q 1.05; Y 3.97; N 1.54; P 1.96
